Assay [1] addresses T1, rat α2β1 integrin (whole blood) (rat, UniProt A0A0G2K470 27-1178; P49134 21-798).
T1 construct: whole, on cells
Nature of the assay: FACS on whole blood, PE-coupled goat anti-mouse IgG.

Assay [2] deals with dog α2β1 integrin (whole blood) (dog). The description is as above.
Assay [3] has as its target rabbit α2β1 integrin (whole blood) (rabbit, UniProt G1T180 31-1185; A0A5F9C3C4 21-798). The assay is described as above.
The target in assay [4] is T2, mouse α2β1 integrin (whole blood) (mouse, UniProt Q62469 27-1178; P09055 21-798).
T2 construct: whole, on cells
The description is as above.

For assay [5], the target named is T3, α2 integrin on HUVEC cells.
T3 construct: The sheet names no target; also called HUVEC cells (promocell C12200, lot 6062203)
As to the kind of experiment: MesoScale electrochemiluminescence binding to HUVEC cells coated on plates, serial dilutions of the mAb. As for the experimental part:
(§1) To further assess the binding properties of the anti-α2 integrin mAb, a cell based assay with HUVEC cells (promocell C12200, lot 6062203) was performed. Cells were coated onto high binding plates (Meso Scale Discovery (MSD), L15XB-3) in PBS (10.000 cells/well) and incubated for 2 hrs at room temperature. Then the plates were emptied, washed twice with PBS and blocked with blocking solution (MSD, R93BA-4) for 90 min. After emptying and washing the plates again as described above, serial dilutions of anti α2-mAb were added and incubated with the cells for 1 h at room temperature. Following another washing step as above Read buffer T without surfactant (Meso scale Discovery, R92TD-2) was added. Electrochemilumenescence was read in a suitable device (Meso scale Discovery, Sector imager). Scatchard plot analysis was used to determine KD of the tested mAbs (see FIG. 1).

Assay [6] deals with T3, α2 integrin on HUVEC cells. Nature of the assay: Scatchard plot (B/F against B (RLU)) of MesoScale electrochemiluminescence binding to HUVEC cells coated on plates; drawn table: SD 0.01291, CV(%) 6.0, 95%CI [0.1899; 0.2425]. As for the experimental part: as §1

T3 sequence (alpha, as listed by the source limits assumed): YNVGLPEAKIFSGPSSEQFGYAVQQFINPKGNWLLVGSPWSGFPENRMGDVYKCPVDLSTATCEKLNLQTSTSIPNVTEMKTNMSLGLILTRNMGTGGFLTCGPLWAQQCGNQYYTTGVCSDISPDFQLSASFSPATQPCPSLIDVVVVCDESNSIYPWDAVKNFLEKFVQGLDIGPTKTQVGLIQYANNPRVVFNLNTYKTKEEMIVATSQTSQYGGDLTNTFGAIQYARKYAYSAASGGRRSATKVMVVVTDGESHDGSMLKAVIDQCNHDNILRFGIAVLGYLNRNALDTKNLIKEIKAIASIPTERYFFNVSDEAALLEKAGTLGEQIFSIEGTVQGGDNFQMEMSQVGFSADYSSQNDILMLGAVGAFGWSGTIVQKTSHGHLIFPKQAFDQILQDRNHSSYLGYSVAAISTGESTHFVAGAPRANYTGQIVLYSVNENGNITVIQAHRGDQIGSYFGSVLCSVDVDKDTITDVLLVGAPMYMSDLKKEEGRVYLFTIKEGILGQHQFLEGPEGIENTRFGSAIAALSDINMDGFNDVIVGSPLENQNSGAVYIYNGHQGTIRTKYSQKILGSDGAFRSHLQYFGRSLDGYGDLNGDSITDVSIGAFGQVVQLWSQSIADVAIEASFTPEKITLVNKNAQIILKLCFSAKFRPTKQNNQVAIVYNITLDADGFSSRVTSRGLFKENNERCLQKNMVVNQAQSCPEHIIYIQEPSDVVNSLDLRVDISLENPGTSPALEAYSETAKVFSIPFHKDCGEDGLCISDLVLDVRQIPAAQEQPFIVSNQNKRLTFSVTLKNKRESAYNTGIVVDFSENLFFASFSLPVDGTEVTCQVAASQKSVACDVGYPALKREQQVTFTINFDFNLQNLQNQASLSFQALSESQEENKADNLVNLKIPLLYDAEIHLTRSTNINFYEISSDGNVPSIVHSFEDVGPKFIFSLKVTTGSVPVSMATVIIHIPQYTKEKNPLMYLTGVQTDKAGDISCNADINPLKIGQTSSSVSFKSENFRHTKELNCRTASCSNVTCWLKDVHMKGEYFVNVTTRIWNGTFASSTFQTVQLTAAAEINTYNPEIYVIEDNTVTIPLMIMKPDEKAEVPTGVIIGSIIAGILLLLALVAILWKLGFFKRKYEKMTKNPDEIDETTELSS
T1 sequence (chain, as listed by the source, chain 1 of 2): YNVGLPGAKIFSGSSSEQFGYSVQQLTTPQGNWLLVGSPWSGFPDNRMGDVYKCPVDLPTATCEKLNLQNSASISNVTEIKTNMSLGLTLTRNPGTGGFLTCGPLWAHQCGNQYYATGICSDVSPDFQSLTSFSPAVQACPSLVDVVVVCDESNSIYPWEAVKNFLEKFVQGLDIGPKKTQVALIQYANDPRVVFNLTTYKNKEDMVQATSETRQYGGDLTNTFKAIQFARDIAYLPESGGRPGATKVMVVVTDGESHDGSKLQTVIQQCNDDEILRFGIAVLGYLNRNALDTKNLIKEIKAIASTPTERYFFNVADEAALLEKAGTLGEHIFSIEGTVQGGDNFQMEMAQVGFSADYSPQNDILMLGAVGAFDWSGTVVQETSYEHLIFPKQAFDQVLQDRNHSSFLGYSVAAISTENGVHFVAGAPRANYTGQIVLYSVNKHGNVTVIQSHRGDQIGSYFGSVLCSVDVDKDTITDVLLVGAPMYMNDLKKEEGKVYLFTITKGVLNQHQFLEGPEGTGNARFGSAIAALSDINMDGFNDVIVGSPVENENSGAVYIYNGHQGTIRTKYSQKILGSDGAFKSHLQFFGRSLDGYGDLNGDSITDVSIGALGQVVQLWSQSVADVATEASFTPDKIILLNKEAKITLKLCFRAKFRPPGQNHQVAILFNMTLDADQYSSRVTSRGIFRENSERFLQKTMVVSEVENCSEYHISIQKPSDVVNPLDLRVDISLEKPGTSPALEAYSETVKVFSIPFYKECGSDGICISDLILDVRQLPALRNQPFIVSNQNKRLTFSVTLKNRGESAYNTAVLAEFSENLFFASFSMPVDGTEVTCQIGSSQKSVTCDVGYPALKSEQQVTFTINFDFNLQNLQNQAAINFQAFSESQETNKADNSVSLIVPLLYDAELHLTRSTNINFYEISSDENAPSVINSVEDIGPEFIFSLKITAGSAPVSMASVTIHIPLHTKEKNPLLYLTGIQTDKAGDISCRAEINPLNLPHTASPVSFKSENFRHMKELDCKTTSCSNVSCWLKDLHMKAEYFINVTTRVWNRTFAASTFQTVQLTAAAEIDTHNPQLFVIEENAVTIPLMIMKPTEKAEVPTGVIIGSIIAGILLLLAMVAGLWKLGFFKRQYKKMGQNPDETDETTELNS
T1 sequence (P49134 21-798, chain 2 of 2): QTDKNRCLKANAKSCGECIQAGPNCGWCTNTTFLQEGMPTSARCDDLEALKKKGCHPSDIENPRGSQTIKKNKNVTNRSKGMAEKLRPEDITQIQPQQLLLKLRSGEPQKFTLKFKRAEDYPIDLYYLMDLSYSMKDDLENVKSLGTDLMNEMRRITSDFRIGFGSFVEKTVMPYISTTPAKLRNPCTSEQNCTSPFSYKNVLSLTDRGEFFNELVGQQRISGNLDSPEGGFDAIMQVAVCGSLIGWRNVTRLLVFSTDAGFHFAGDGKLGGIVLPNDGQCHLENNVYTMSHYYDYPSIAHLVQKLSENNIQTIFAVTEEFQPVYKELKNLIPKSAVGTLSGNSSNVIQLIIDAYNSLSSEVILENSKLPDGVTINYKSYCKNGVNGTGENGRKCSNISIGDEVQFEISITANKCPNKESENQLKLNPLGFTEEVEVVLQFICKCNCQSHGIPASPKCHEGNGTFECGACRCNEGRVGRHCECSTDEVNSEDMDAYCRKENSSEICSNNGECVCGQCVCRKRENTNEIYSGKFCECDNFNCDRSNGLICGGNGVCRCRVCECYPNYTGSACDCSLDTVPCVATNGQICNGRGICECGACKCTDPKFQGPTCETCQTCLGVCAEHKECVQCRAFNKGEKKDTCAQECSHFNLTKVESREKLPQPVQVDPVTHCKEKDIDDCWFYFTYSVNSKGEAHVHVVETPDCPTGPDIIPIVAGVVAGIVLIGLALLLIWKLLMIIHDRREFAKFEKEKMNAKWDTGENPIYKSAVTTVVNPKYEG
T2 sequence (Q62469 27-1178, chain 1 of 2): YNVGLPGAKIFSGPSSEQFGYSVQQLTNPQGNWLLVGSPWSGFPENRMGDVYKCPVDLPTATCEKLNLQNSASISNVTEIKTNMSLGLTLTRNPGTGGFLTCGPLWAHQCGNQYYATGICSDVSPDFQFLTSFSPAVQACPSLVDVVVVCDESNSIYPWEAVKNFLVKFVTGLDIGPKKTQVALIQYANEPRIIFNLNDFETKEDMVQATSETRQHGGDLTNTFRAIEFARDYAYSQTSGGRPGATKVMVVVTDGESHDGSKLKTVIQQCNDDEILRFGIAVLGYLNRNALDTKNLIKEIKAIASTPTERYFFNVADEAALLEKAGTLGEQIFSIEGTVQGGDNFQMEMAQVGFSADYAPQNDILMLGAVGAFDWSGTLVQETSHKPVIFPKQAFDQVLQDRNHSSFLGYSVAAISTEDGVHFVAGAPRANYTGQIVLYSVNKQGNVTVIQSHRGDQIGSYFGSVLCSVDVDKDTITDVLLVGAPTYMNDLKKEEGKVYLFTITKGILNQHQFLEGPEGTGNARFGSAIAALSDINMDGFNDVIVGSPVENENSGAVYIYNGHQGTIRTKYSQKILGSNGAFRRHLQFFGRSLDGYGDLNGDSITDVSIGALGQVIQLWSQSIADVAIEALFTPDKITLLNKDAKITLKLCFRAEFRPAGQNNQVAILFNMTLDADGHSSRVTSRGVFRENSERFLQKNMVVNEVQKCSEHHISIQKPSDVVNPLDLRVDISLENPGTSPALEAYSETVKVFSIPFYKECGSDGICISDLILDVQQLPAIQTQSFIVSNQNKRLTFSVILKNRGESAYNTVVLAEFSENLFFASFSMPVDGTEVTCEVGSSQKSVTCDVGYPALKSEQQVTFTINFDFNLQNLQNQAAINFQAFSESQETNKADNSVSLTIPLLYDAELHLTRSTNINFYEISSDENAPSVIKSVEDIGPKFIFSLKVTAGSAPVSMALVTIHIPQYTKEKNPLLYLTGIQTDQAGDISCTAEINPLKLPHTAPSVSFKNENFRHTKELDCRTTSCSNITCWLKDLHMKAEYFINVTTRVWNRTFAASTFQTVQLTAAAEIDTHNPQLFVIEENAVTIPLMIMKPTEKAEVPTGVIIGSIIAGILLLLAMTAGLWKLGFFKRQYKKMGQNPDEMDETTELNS
T2 sequence (P09055 21-798, chain 2 of 2): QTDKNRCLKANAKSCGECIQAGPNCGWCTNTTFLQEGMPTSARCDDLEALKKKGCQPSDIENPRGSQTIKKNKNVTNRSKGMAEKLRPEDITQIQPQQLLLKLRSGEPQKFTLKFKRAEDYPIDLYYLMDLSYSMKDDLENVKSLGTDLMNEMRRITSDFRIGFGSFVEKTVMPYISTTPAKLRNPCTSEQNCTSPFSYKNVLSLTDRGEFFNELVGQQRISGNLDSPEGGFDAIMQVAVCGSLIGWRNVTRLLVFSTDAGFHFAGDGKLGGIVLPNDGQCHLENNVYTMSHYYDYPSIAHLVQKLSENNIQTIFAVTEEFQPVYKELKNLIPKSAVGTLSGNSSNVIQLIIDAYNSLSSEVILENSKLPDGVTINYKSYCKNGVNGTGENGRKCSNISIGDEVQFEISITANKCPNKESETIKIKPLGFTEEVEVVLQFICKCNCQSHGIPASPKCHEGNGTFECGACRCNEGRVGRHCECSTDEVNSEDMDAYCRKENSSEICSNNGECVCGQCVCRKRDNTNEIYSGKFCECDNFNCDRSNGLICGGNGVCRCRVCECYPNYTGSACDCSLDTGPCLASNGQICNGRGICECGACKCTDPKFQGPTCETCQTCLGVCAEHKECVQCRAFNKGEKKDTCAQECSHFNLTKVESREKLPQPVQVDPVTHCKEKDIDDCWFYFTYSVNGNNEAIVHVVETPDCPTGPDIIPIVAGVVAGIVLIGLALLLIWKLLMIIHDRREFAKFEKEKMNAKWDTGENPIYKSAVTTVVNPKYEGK

B1: anti-α2 integrin mAb purified from hybridoma supernatant (murine, mCk, mIgG2a) (antibody)
heavy: QVQLHQPGAELVKPGAPVKLSCKASGYTFTSYWMNWVKQRPGRGLEWIGRIDPSDSETHYNQKFKDKATLTVDKSSSTAYIQLSSLTSEDSAVYYCAKVGRGYFDYWGQGTTLTVSSAKTTAPSVYPLAPVCGDTTGSSVTLGCLVKGYFPEPVTLTWNSGSLSSGVHTFPAVLQSDLYTLSSSVTVTSSTWPSQSITCNVAHPASSTKVDKKIEPRGPTIKPCPPCKCPAPNLLGGPSVFIFPPKIKDVLMISLSPIVTCVVVDVSEDDPDVQISWFVNNVEVHTAQTQTHREDYNSTLRVVSALPIQHQDWMSGKEFKCKVNNKDLPAPIERTISKPKGSVRAPQVYVLPPPEEEMTKKQVTLTCMVTDFMPEDIYVEWTNNGKTELNYKNTEPVLDSDGSYFMYSKLRVEKKNWVERNSYSCSVVHEGLHNHHTTKSFSRTPGK
light: NIVLTQSPASLAVSLGQRATISCRASESVESYGNSFIYWYQQKPGQAPKLLIYLASNLASGVPARFSGSGSRTDFTLTIDPVEADDAATYYCQQNNEDPYTFGGGTKLEIKRADAAPTVSIFPPSSEQLTSGGASVVCFLNNFYPKDINVKWKIDGSERQNGVLNSWTDQDSKDSTYSMSSTLTLTKDEYERHNSYTCEATHKTSTSPIVKSFNRNEC
notes: also called α2-integrin mAb from hybridoma; α2 mAb from hybridoma supernatant
Broadly, the EC50 (read off the curve) is the concentration that produces a half-maximal response. A low value points to a more potent agent. As a reminder, the Kd is the constant that tells how readily two partners part at equilibrium. A high value points to a looser complex. For the molecule B1, the binding result in assay [1], in assay [2], in assay [3] and in assay [4] was “no binding” each time. Further, in assay [5], the “EC50 (read off the curve)” value was around 200 pM. The same molecule yielded a Kd in assay [6] of 215 pM.

These data come from patent publication US20130156786A1 (Sanofi, published 2013).
